Data reported in patent publication US20210388087A1 (Chugai, published 2021).
Where a chain is given by its changes, count along the chain named. Numbers in names are those of the source.

T1: Human CD3eg linker (human)
T1 construct: Single-chain construct; also called recombinant human CD3
T1 chain: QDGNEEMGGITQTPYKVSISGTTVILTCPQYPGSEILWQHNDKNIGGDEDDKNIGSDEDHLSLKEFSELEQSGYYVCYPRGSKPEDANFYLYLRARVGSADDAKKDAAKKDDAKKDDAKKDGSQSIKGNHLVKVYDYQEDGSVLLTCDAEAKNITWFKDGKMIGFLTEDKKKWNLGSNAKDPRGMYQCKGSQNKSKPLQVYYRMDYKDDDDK

B1: H183/L072 VL S26G (antibody, name in Kabat numbering, V domains shown)
VH: QVQLVESGGGLVQPGRSLRLSCAASGFTFSNAWMHWVRQAPGKGLEWVAQIKDKGNAYAAYYAPSVKGRFTISRDDSKNSIYLQMNSLKTEDTAVYYCHYVHYASASTVLPAFGVDAWGQGTTVTVSS
VL: DIVMTQSPLSLPVTPGEPASISCQAGQELVHMNRNTYLHWYQQKPGQAPRLLIYKVSNRFPGVPDRFSGSGSGTDFTLKISRVEAEDVGVYYCAQGTSVPFTFGQGTKLEIK
B2: H183/L072 VL S26P (antibody, name in Kabat numbering, V domains shown)
VH: B1 VH
VL: B1 VL with G26P
B3: H183/L072 VL S52A (antibody, name in Kabat numbering, V domains shown)
VH: B1 VH
VL: B1 VL with G26S, S57A
B4: H183/L072 VL S26N (antibody, name in Kabat numbering, V domains shown)
VH: B1 VH
VL: B1 VL with G26N
B5: H183/L072 VL S52E (antibody, name in Kabat numbering, V domains shown)
VH: B1 VH
VL: B1 VL with G26S, S57E
B6: H183/L072 VL S26Q (antibody, name in Kabat numbering, V domains shown)
VH: B1 VH
VL: B1 VL with G26Q
B7: H183/L072 VL S26L (antibody, name in Kabat numbering, V domains shown)
VH: B1 VH
VL: B1 VL with G26L
B8: H183/L072 VL S26H (antibody, name in Kabat numbering, V domains shown)
VH: B1 VH
VL: B1 VL with G26H
B9: H183/L072 VL S26I (antibody, name in Kabat numbering, V domains shown)
VH: B1 VH
VL: B1 VL with G26I
B10: H183/L072 VL S26V (antibody, name in Kabat numbering, V domains shown)
VH: B1 VH
VL: B1 VL with G26V
B11: H183/L072 VL S26K (antibody, name in Kabat numbering, V domains shown)
VH: B1 VH
VL: B1 VL with G26K
B12: H183/L072 VL S52D (antibody, name in Kabat numbering, V domains shown)
VH: B1 VH
VL: B1 VL with G26S, S57D
B13: H183/L072 VL S26Y (antibody, name in Kabat numbering, V domains shown)
VH: B1 VH
VL: B1 VL with G26Y
B14: H183/L072 VL S26W (antibody, name in Kabat numbering, V domains shown)
VH: B1 VH
VL: B1 VL with G26W
B15: H183/L072 VL S26M (antibody, name in Kabat numbering, V domains shown)
VH: B1 VH
VL: B1 VL with G26M
B16: H183/L072 VL S26R (antibody, name in Kabat numbering, V domains shown)
VH: B1 VH
VL: B1 VL with G26R
B17: H183/L072 VL S26T (antibody, name in Kabat numbering, V domains shown)
VH: B1 VH
VL: B1 VL with G26T

Biological target: T1, Human CD3eg linker
Test: SPR; fold vs parent H183/L072

Point of comparison: B14, “fold change of affinity” value 0.3 fold. Against it:
- B1 — higher, 0.9 fold
- B2 — lower, 0.2 fold
- B3 — higher, 1.2 fold
- B4 — higher, 0.9 fold
- B5 — higher, 1 fold
- B6 — higher, 0.8 fold
- B7 — higher, 0.5 fold
- B8 — higher, 0.4 fold
- B9 — higher, 0.5 fold
- B10 — higher, 0.6 fold
- B11 — higher, 0.7 fold
- B12 — higher, 1 fold
- B13 — higher, 0.4 fold
- B15 — higher, 0.6 fold
- B16 — higher, 0.5 fold
- B17 — higher, 1.4 fold
